Measured values from patent US20100004325.

T1: B-P564 peptide (biotin-labeled HIF-1α 556-575 peptide)
T1 chain: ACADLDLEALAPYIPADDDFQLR

T2: F-N803 peptide (FITC-labeled HIF-1α 788-822 peptide)
T2 chain: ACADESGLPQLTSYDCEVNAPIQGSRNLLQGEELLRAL


Tests used:
[1] = biological target: T1, B-P564 peptide (biotin-labeled HIF-1α …)
[2] = biological target: T2, F-N803 peptide (FITC-labeled HIF-1α …)

Protein | proline hydroxylation of the peptide, MALDI mass spectrometry [1] | asparagine hydroxylation of the peptide, MALDI mass spectrometry [2]
GST-PHD2 (human prolyl hydroxylase 2, amino acids 184-426) (protein) QTKPLPALKLALEYIVPCMNKHGICVVDDFLGKETGQQIGDEVRALHDTGKFTDGQLVSQKSDSSKDIRGDKITWIEGKEPGCETIGLLMSSMDDLIRHCNGKLGSYKINGRTKAMVACYPGNGTGYVRHVDNPNGDGRCVTCIYYLNKDWDAKVSGGILRIFPEGKAQFADIEPKFDRLLFFWSDRRNPHEVQPAYATRYAITVWYFDADERARAKVKYLTGEKGVRVELNKPSDSVGKDVF | The proline residue was hydroxylated in the baicalein-free reactant | –
His-FIH1 (human factor inhibiting HIF1, amino acids 1-349) (protein) MAATAAEAVASGSGEPREEAGALGPAWDESQLRSYSFPTRPIPRLSQSDPRAEELIENEEPVVLTDTNLVYPALKWDLEYLQENIGNGDFSVYSASTHKFLYYDEKKMANFQNFKPRSNREEMKFHEFVEKLQDIQQRGGEERLYLQQTLNDTVGRKIVMDFLGFNWNWINKQQGKRGWGQLTSNLLLIGMEGNVTPAHYDEQQNFFAQIKGYKRCILFPPDQFECLYPYPVHHPCDRQSQVDFDNPDYERFPNFQNVVGYETVVGPGDVLYIPMYWWHHIESLLNGGITITVNFWYKGAPTPKRIEYPLKAHQKVAIMRNIEKMLGEALGNPQEVGPLLNTMIKGRYN | – | The asparagine residue was hydroxylated in the baicalein-free reactant
